{"source": "patent US20230329245A1", "about": "“COMPOSITIONS AND METHODS OF USE THEREOF” (Curie Co. Inc., priority 2020, published 2023)", "molecules": {"B1": {"name": "Pro-Tgase SEQ ID NO:3: variant of Streptomyces mobaraensis Tgase zymogen form (pro-Tgase), SEQ ID NO:3 (protein)", "chain": "MDNGAGEETKSYAETYRLTADDVANINALNESAPAASSAGPSFRAPDPDDRVTPPAEPLDRMPDPYRPSYGRAETVVNNYIRKWQQVYSHRDGRKQQMTEEQREWLSYGCVGVTWVNSGQYPTNRLAFASFDEDRFKNELKNGRPRSGETRAEFEGRVAKESFDEEKGFQRAREVASVMNRALENAHDESAYLDNLKKELANGNDALRNEDARSPFYSALRNTPSFKERNGGNHDPSRMKAVIYSKHFWSGQDRSSSADKRKYGDPDAFRPAPGTGLVDMSRDRNIPRSPTSPGEGFVNFDYGWFGAQTEADADKTVWTHGNHYHAPNGSLGAMHVYESKFRNWSEGYSDFDRGAYVITFIPKSWNTAPDKVKQGWPLEHHHHHH"}}, "test": "Colorimetric hydroxamate Tgase activity assay", "type": "biochemical", "settings": "zymogen purified on Ni-IMAC resin and desalted", "method": "The cells were lysed using a high-pressure homogenizer at pressures from 15000-20000 psi. The crude lysates were clarified through centrifugation at 15000×g for up to 60 minutes. The clarified lysate containing pro-Tgase SEQ ID NO:3 was evaluated by sodium dodecyl sulfate polyacrylamide gel electrophoresis (SDS-PAGE) and spectroscopy (A280 nm). The clarified lysate was further purified by affinity column on a Ni-IMAC resin and desalted.", "data": [{"molecule": "B1", "values": [{"measurement": "Tgase activity (colorimetric hydroxamate activity assay)", "result": "little to no activity"}]}]}
